The source of these data is publication PMC8184817, “Transmission of light signals from the light-oxygen-voltage core via the hydrophobic region of the β-sheet surface in aureochrome-1” (Scientific Reports, 2021).

The labels stand for the following.
B1: Photozipper (PZ), N-terminally truncated aureochrome-1 of Vaucheria frigida, wild type [Vaucheria frigida] / itself (parent)
chain: GSISSELTEAQKVERRERNREHAKRSRVRKKFLLESLQQSVNELNHENNSLKESIREHLGPRGDSLIAQSSPEADTLLTDNPSKANRILEDPDYSLVKALQMAQQNFVITDASLPDNPIVYASRGFLTLTGYSLDQILGRNCRFLQGPETDPRAVDKIRNAITKGVDTSVCLLNYRQDGTTFWNLFFVAGLRDSKGNIVNYVGVQSKVSEDYAKLLVNEQNIEYKGVRTSNMLRRK

The variants in the assay derive from B1. Description: DLS. The conditions noted are these: with itself.

As for chain 1 L100A, the hydrodynamic size (D (dark) state) turned out to be 3.18 nm and the hydrodynamic size (L (light) state) was found to be 3.88 nm.

Take chain 1 L89A L96A L100A: the hydrodynamic size is 3.05 nm (D (dark) state) and 3.86 nm (L (light) state).
